According to patent publication US20100144636A1, “PEPTIDES DERIVED FROM RAS-P21 AND USES THEREFOR” (THE RESEARCH FOUNDATION OF STATE UNIVERSITY OF NEW YORK, priority 2008, published 2010):

B1: MKP-1T4: MAPK phosphatase that de-activates this kinase (protein, UniProt P28562 1-367, looked up)
Dual specificity protein …: MVMEVGTLDAGGLRALLGERAAQCLLLDCRSFFAFNAGHIAGSVNVRFSTIVRRRAKGAMGLEHIVPNAELRGRLLAGAYHAVVLLDERSAALDGAKRDGTLALAAGALCREARAAQVFFLKGGYEAFSASCPELCSKQSTPMGLSLPLSTSVPDSAESGCSSCSTPLYDQGGPVEILPFLYLGSAYHASRKDMLDALGITALINVSANCPNHFEGHYQYKSIPVEDNHKADISSWFNEAIDFIDSIKNAGGRVFVHCQAGISRSATICLAYLMRTNRVKLDEAFEFVKQRRSIISPNFSFMGQLLQFESQVLAPHCSAEAGSPAMAVLDRGTSTTTVFNFPVSIPVHSTNSALSYLQSPITTSPSC
B2: GST-pi: glutathione-S-transferase, pi isozyme, selective inhibitor of JNK-induced phosphorylation of jun (protein, UniProt P09211 2-210, looked up)
Glutathione S-transferase P: PPYTVVYFPVRGRCAALRMLLADQGQSWKEEVVTVETWQEGSLKASCLYGQLPKFQDGDLTLYQSNTILRHLGRTLGLYGKDQQEAALVDMVNDGVEDLRCKYISLIYTNYEAGKDDYVKALPGQLKPFETLLSQNQGGKTFIVGDQISFADYNLLDLLLIHEVLAPGCLDAFPLLSAYVGRLSARPKLKAFLASPEYVNLPINGNGKQ

Key:
[1] = test system: oncogenic (Val 12-containing) ras-p21-induced oocyte maturation; assay: Oncogenic ras-p21-induced oocyte maturation (GVBD); format: cell-based, Xenopus laevis; settings: injected/co-injected with oncogenic ras-p21 into oocytes
Source text: (§1) The Applicants have synthesized both of the inventive peptides, referred to as PNC-7 and PNC-2, and assayed them for their abilities to block oncogenic ras-p21 induction of maturation of Xenopus laevis oocytes. Injection of oncogenic, but not wild-type ras-p21, into these oocytes induce oocyte maturation, i.e., completion of the second meiotic division, as measured by germinal vesicle membrane breakdown (GVBD). Insulin also induces oocyte maturation in a manner that requires activation of endogenous wild-type ras-p21.

[2] = test system: insulin-induced oocyte maturation; assay: Insulin-induced oocyte maturation (activated wild-type ras-p21); format: cell-based, Xenopus laevis; settings: oocytes induced to mature with insulin
Source text: as §1

| Molecule | inhibition of oncogenic ras-p21-induced oocyte maturation [1] | inhibition of insulin-induced oocyte maturation [2] |
| --- | --- | --- |
| B1 | completely blocks | considerably less effect |
| B2 | complete inhibition of oocyte maturation | no effect |
